{
  "source": "patent US11529425B2",
  "about": "“Immunoconjugates comprising signal regulatory protein alpha” (DINGFU BIOTARGET CO., LTD., priority 2017, dated 2022)",
  "molecules": {"B1": {"name": "hu56di-CV1: heterodimer of hu56di-Fc9 and CV1-Fc6, Group 14 (protein)", "chain 1": "QVQLVESGGGLVQPGGSLRLSCAASGKMSSRRCMAWFRQAPGKERERVAKLLTTSGSTYLADSVKGRFTISRDNSKNTVYLQMNSLRAEDTAVYYCAADSFEDPTCTLVTSSGAFQYWGQGTLVTVSSGAPQVQLVESGGGLVQPGGSLRLSCAASGKMSSRRCMAWFRQAPGKERERVAKLLTTSGSTYLADSVKGRFTISRDNSKNTVYLQMNSLRAEDTAVYYCAADSFEDPTCTLVTSSGAFQYWGQGTLVTVSSEPKSSDKTHTCPPCPAPELLGGPSVFLFPPKPKDTLMISRTPEVTCVVVDVSHEDPEVKFNWYVDGVEVHNAKTKPREEQYNSTYRVVSVLTVLHQDWLNGKEYKCKVSNKALPAPIEKTISKAKGQPREPQVYTLPPCRDELTKNQVSLWCLVKGFYPSDIAVEWESNGQPENNYKTTPPVLDSDGSFFLYSALTVDKSRWQQGNVFSCSVMHEALHNHYTQKSLSLSPGK", "chain 2": "EEELQIIQPDKSVLVAAGETATLRCTITSLFPVGPIQWFRGAGPGRVLIYNQRQGPFPRVTTVSDTTKRNNMDFSIRIGNITPADAGTYYCIKFRKGSPDDVEFKSGAGTELSVRAKPSGGGGSDKTHTCPPCPAPELLGGPSVFLFPPKPKDTLMISRTPEVTCVVVDVSHEDPEVKFNWYVDGVEVHNAKTKPREEQYNSTYRVVSVLTVLHQDWLNGKEYKCKVSNKALPAPIEKTISKAKGQPREPQVYTLPPSRDELTKNQVSLSCGVKGFYPSDIAVEWESNGQPENNYKTTPPVLDSDGSFKLASKLTVDKSRWQQGNVFSCSVMHEALHNHYTQKSLSLSPGK"}},
  "test_system": "RBC",
  "assay": "Binding to fresh RBC diluted 2500 times, flow cytometry",
  "conditions": "20 μg ml^−1, FIG. 6f",
  "protocol": "Similarly, fresh RBC cell was diluted 2500 times, then it was incubated with 20 μg ml^−1 isotype control (human IgG1), hu56di-SIRPα, hu56di-CV1, SIRPα-Fc IgG1 and AB6.12 IgG1, respectively. The results were shown in FIG. 6f, in which serial numbers of 1, 2, 3, 4 and 5 correspond to isotype control, hu56di-SIRPα, hu56di-CV1, SIRPα-Fc IgG1 and AB6.12 IgG1.",
  "note": "Entries after “also recorded” stand apart in the source; their conditions may differ.",
  "data": [
    {"molecule": "B1", "values": [
      {"measurement": "binding to RBC", "result": "stronger binding to RBC than hu56di-SIRPα; also recorded: comparable binding to RBC with AB6.12 IgG1"}
    ]}
  ]
}
